Results as given in patent publication US20090011997A1 (THERATECHNOLOGIES, published 2009).
Bridge positions count the residues as written; N and C are the ends. Square brackets hold non-standard residues; d marks the D form. Ends that are not written are not given here. Nle = CCCC[C@H](N)C(=O)O

What was measured:
[1] = target: MCR1 receptor (on MCR1 receptor-expressing B16-F1 cells) (UniProt Q01727 1-315); assay: cell-based or functional assay
ANP receptor (on ANP …) = target: ANP receptor (on ANP receptor-expressing LLC-PK1 cells); assay: cell-based or functional assay

Sequence of MCR1 receptor (on MCR1 receptor-expressing B16-F1 cells) (Q01727 whole entry): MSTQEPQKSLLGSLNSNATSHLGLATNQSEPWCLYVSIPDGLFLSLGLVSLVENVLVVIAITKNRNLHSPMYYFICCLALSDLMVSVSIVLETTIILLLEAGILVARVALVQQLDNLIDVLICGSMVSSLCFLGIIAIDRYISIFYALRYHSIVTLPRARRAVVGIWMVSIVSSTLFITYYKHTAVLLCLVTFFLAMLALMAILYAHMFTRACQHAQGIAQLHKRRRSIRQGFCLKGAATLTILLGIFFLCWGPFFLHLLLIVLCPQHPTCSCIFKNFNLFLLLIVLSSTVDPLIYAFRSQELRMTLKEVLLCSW

B1: bifunctional hormone of SEQ ID NO: 34 (peptide)
peptide: Ac-H[dF]RWGKP[Nle]CHFGGR[Nle]DRISCYR-NH2
modifications: disulfide 9-20
SMILES: CCCC[C@@H]1NC(=O)[C@H](CCCNC(=N)N)NC(=O)CNC(=O)CNC(=O)[C@H](Cc2ccccc2)NC(=O)[C@H](Cc2c[nH]cn2)NC(=O)[C@@H](NC(=O)[C@H](CCCC)NC(=O)[C@@H]2CCCN2C(=O)[C@H](CCCCN)NC(=O)CNC(=O)[C@H](Cc2c[nH]c3ccccc23)NC(=O)[C@H](CCCNC(=N)N)NC(=O)[C@@H](Cc2ccccc2)NC(=O)[C@H](Cc2c[nH]cn2)NC(C)=O)CSSC[C@@H](C(=O)N[C@@H](Cc2ccc(O)cc2)C(=O)N[C@@H](CCCNC(=N)N)C(N)=O)NC(=O)[C@H](CO)NC(=O)[C@H]([C@@H](C)CC)NC(=O)[C@H](CCCNC(=N)N)NC(=O)[C@H](CC(=O)O)NC1=O
EC50 on the production of cAMP (BC16-F1 cells) [1]: 62.5 nM
EC50 on the production of cGMP (LLC-PK1 cells) (ANP receptor (on ANP …)): 132 nM

B2: bifunctional hormone of SEQ ID NO: 46 (peptide)
peptide: Ac-H[dF]RWGPKPVQGSGCPGRKMDRISSSSGLGCKVLRRH-NH2
modifications: disulfide 14-30
SMILES: CC[C@H](C)[C@@H]1NC(=O)[C@H](CCCNC(=N)N)NC(=O)[C@H](CC(=O)O)NC(=O)[C@H](CCSC)NC(=O)[C@H](CCCCN)NC(=O)[C@H](CCCNC(=N)N)NC(=O)CNC(=O)[C@@H]2CCCN2C(=O)[C@@H](NC(=O)CNC(=O)[C@H](CO)NC(=O)CNC(=O)[C@H](CCC(N)=O)NC(=O)[C@@H](NC(=O)[C@@H]2CCCN2C(=O)[C@H](CCCCN)NC(=O)[C@@H]2CCCN2C(=O)CNC(=O)[C@H](Cc2c[nH]c3ccccc23)NC(=O)[C@H](CCCNC(=N)N)NC(=O)[C@@H](Cc2ccccc2)NC(=O)[C@H](Cc2c[nH]cn2)NC(C)=O)C(C)C)CSSC[C@@H](C(=O)N[C@@H](CCCCN)C(=O)N[C@H](C(=O)N[C@@H](CC(C)C)C(=O)N[C@@H](CCCNC(=N)N)C(=O)N[C@@H](CCCNC(=N)N)C(=O)N[C@@H](Cc2c[nH]cn2)C(N)=O)C(C)C)NC(=O)CNC(=O)[C@H](CC(C)C)NC(=O)CNC(=O)[C@H](CO)NC(=O)[C@H](CO)NC(=O)[C@H](CO)NC(=O)[C@H](CO)NC1=O
EC50 on the production of cAMP (BC16-F1 cells) [1]: 28 nM

B3: bifunctional hormone of SEQ ID NO: 45 (peptide)
peptide: Ac-H[dF]RWSPKMVQGSGCPGRKMDRISSSSGLGCKVLRRH-NH2
modifications: disulfide 14-30
SMILES: CC[C@H](C)[C@@H]1NC(=O)[C@H](CCCNC(=N)N)NC(=O)[C@H](CC(=O)O)NC(=O)[C@H](CCSC)NC(=O)[C@H](CCCCN)NC(=O)[C@H](CCCNC(=N)N)NC(=O)CNC(=O)[C@@H]2CCCN2C(=O)[C@@H](NC(=O)CNC(=O)[C@H](CO)NC(=O)CNC(=O)[C@H](CCC(N)=O)NC(=O)[C@@H](NC(=O)[C@H](CCSC)NC(=O)[C@H](CCCCN)NC(=O)[C@@H]2CCCN2C(=O)[C@H](CO)NC(=O)[C@H](Cc2c[nH]c3ccccc23)NC(=O)[C@H](CCCNC(=N)N)NC(=O)[C@@H](Cc2ccccc2)NC(=O)[C@H](Cc2c[nH]cn2)NC(C)=O)C(C)C)CSSC[C@@H](C(=O)N[C@@H](CCCCN)C(=O)N[C@H](C(=O)N[C@@H](CC(C)C)C(=O)N[C@@H](CCCNC(=N)N)C(=O)N[C@@H](CCCNC(=N)N)C(=O)N[C@@H](Cc2c[nH]cn2)C(N)=O)C(C)C)NC(=O)CNC(=O)[C@H](CC(C)C)NC(=O)CNC(=O)[C@H](CO)NC(=O)[C@H](CO)NC(=O)[C@H](CO)NC(=O)[C@H](CO)NC1=O
EC50 on the production of cAMP (BC16-F1 cells) [1]: 365 nM

B4: bifunctional hormone of SEQ ID NO: 35 (peptide)
peptide: Ac-H[dF]RWGKP[Nle]CFGGR[Nle]DRIGAQSGLGCNSFRY-NH2
modifications: disulfide 9-25
SMILES: CCCC[C@@H]1NC(=O)[C@H](CCCNC(=N)N)NC(=O)CNC(=O)CNC(=O)[C@H](Cc2ccccc2)NC(=O)[C@@H](NC(=O)[C@H](CCCC)NC(=O)[C@@H]2CCCN2C(=O)[C@H](CCCCN)NC(=O)CNC(=O)[C@H](Cc2c[nH]c3ccccc23)NC(=O)[C@H](CCCNC(=N)N)NC(=O)[C@@H](Cc2ccccc2)NC(=O)[C@H](Cc2c[nH]cn2)NC(C)=O)CSSC[C@@H](C(=O)N[C@@H](CC(N)=O)C(=O)N[C@@H](CO)C(=O)N[C@@H](Cc2ccccc2)C(=O)N[C@@H](CCCNC(=N)N)C(=O)N[C@@H](Cc2ccc(O)cc2)C(N)=O)NC(=O)CNC(=O)[C@H](CC(C)C)NC(=O)CNC(=O)[C@H](CO)NC(=O)[C@H](CCC(N)=O)NC(=O)[C@H](C)NC(=O)CNC(=O)[C@H]([C@@H](C)CC)NC(=O)[C@H](CCCNC(=N)N)NC(=O)[C@H](CC(=O)O)NC1=O
EC50 on the production of cAMP (BC16-F1 cells) [1]: 31.4 nM
EC50 on the production of cGMP (LLC-PK1 cells) (ANP receptor (on ANP …)): 216 nM

SLRRSSCFGGRMDRIGAQSGLGCNSFRY (disulfide 7-23; also: C-terminal amide in Table IV, not in Table I) [native ANP (SEQ ID NO: 2)]
EC50 on the production of cGMP (LLC-PK1 cells) (ANP receptor (on ANP …)): 3.3 nM

B5: bifunctional hormone of SEQ ID NO: 33 (peptide)
peptide: Ac-H[dF]RWGKPMCFGGRMDRIGAQSGLGCNSFRY-NH2
modifications: disulfide 9-25
SMILES: CC[C@H](C)[C@@H]1NC(=O)[C@H](CCCNC(=N)N)NC(=O)[C@H](CC(=O)O)NC(=O)[C@H](CCSC)NC(=O)[C@H](CCCNC(=N)N)NC(=O)CNC(=O)CNC(=O)[C@H](Cc2ccccc2)NC(=O)[C@@H](NC(=O)[C@H](CCSC)NC(=O)[C@@H]2CCCN2C(=O)[C@H](CCCCN)NC(=O)CNC(=O)[C@H](Cc2c[nH]c3ccccc23)NC(=O)[C@H](CCCNC(=N)N)NC(=O)[C@@H](Cc2ccccc2)NC(=O)[C@H](Cc2c[nH]cn2)NC(C)=O)CSSC[C@@H](C(=O)N[C@@H](CC(N)=O)C(=O)N[C@@H](CO)C(=O)N[C@@H](Cc2ccccc2)C(=O)N[C@@H](CCCNC(=N)N)C(=O)N[C@@H](Cc2ccc(O)cc2)C(N)=O)NC(=O)CNC(=O)[C@H](CC(C)C)NC(=O)CNC(=O)[C@H](CO)NC(=O)[C@H](CCC(N)=O)NC(=O)[C@H](C)NC(=O)CNC1=O
EC50 on the production of cAMP (BC16-F1 cells) [1]: 10.4 nM
EC50 on the production of cGMP (LLC-PK1 cells) (ANP receptor (on ANP …)): 69 nM

B6: bifunctional hormone of SEQ ID NO: 29 (peptide)
peptide: [Nle]EHFGGR[Nle]DRISKYRH[dF]RW-NH2
modifications: lactam 2-13; N-terminus assumed
SMILES: CCCC[C@@H]1NC(=O)[C@H](CCCNC(=N)N)NC(=O)CNC(=O)CNC(=O)[C@H](Cc2ccccc2)NC(=O)[C@H](Cc2c[nH]cn2)NC(=O)[C@@H](NC(=O)[C@@H](N)CCCC)CCC(=O)NCCCC[C@@H](C(=O)N[C@@H](Cc2ccc(O)cc2)C(=O)N[C@@H](CCCNC(=N)N)C(=O)N[C@@H](Cc2c[nH]cn2)C(=O)N[C@H](Cc2ccccc2)C(=O)N[C@@H](CCCNC(=N)N)C(=O)N[C@@H](Cc2c[nH]c3ccccc23)C(N)=O)NC(=O)[C@H](CO)NC(=O)[C@H]([C@@H](C)CC)NC(=O)[C@H](CCCNC(=N)N)NC(=O)[C@H](CC(=O)O)NC1=O
EC50 on the production of cGMP (LLC-PK1 cells) (ANP receptor (on ANP …)): 1430 nM

B7: bifunctional hormone of SEQ ID NO: 43 (peptide)
peptide: Ac-HRWGKPMCFGGRMDRIGAQSGLGCNSFRY-NH2
modifications: disulfide 8-24
SMILES: CC[C@H](C)[C@@H]1NC(=O)[C@H](CCCNC(=N)N)NC(=O)[C@H](CC(=O)O)NC(=O)[C@H](CCSC)NC(=O)[C@H](CCCNC(=N)N)NC(=O)CNC(=O)CNC(=O)[C@H](Cc2ccccc2)NC(=O)[C@@H](NC(=O)[C@H](CCSC)NC(=O)[C@@H]2CCCN2C(=O)[C@H](CCCCN)NC(=O)CNC(=O)[C@H](Cc2c[nH]c3ccccc23)NC(=O)[C@H](CCCNC(=N)N)NC(=O)[C@H](Cc2c[nH]cn2)NC(C)=O)CSSC[C@@H](C(=O)N[C@@H](CC(N)=O)C(=O)N[C@@H](CO)C(=O)N[C@@H](Cc2ccccc2)C(=O)N[C@@H](CCCNC(=N)N)C(=O)N[C@@H](Cc2ccc(O)cc2)C(N)=O)NC(=O)CNC(=O)[C@H](CC(C)C)NC(=O)CNC(=O)[C@H](CO)NC(=O)[C@H](CCC(N)=O)NC(=O)[C@H](C)NC(=O)CNC1=O
EC50 on the production of cGMP (LLC-PK1 cells) (ANP receptor (on ANP …)): 86.8 nM

B8: bifunctional hormone of SEQ ID NO: 41 (peptide)
peptide: Ac-EHFRWGRRSSCFGGRMDRIGAQSGLGCNSFRY-NH2
modifications: disulfide 11-27
SMILES: CC[C@H](C)[C@@H]1NC(=O)[C@H](CCCNC(=N)N)NC(=O)[C@H](CC(=O)O)NC(=O)[C@H](CCSC)NC(=O)[C@H](CCCNC(=N)N)NC(=O)CNC(=O)CNC(=O)[C@H](Cc2ccccc2)NC(=O)[C@@H](NC(=O)[C@H](CO)NC(=O)[C@H](CO)NC(=O)[C@H](CCCNC(=N)N)NC(=O)[C@H](CCCNC(=N)N)NC(=O)CNC(=O)[C@H](Cc2c[nH]c3ccccc23)NC(=O)[C@H](CCCNC(=N)N)NC(=O)[C@H](Cc2ccccc2)NC(=O)[C@H](Cc2c[nH]cn2)NC(=O)[C@H](CCC(=O)O)NC(C)=O)CSSC[C@@H](C(=O)N[C@@H](CC(N)=O)C(=O)N[C@@H](CO)C(=O)N[C@@H](Cc2ccccc2)C(=O)N[C@@H](CCCNC(=N)N)C(=O)N[C@@H](Cc2ccc(O)cc2)C(N)=O)NC(=O)CNC(=O)[C@H](CC(C)C)NC(=O)CNC(=O)[C@H](CO)NC(=O)[C@H](CCC(N)=O)NC(=O)[C@H](C)NC(=O)CNC1=O
EC50 on the production of cGMP (LLC-PK1 cells) (ANP receptor (on ANP …)): 8.9 nM

B9: bifunctional hormone of SEQ ID NO: 44 (peptide)
peptide: Ac-H[dF]RWGKPMCFGGRMGAQSGLGCNSFRY-NH2
modifications: disulfide 9-22
SMILES: CSCC[C@@H]1NC(=O)[C@H](CCCNC(=N)N)NC(=O)CNC(=O)CNC(=O)[C@H](Cc2ccccc2)NC(=O)[C@@H](NC(=O)[C@H](CCSC)NC(=O)[C@@H]2CCCN2C(=O)[C@H](CCCCN)NC(=O)CNC(=O)[C@H](Cc2c[nH]c3ccccc23)NC(=O)[C@H](CCCNC(=N)N)NC(=O)[C@@H](Cc2ccccc2)NC(=O)[C@H](Cc2c[nH]cn2)NC(C)=O)CSSC[C@@H](C(=O)N[C@@H](CC(N)=O)C(=O)N[C@@H](CO)C(=O)N[C@@H](Cc2ccccc2)C(=O)N[C@@H](CCCNC(=N)N)C(=O)N[C@@H](Cc2ccc(O)cc2)C(N)=O)NC(=O)CNC(=O)[C@H](CC(C)C)NC(=O)CNC(=O)[C@H](CO)NC(=O)[C@H](CCC(N)=O)NC(=O)[C@H](C)NC(=O)CNC1=O
EC50 on the production of cAMP (BC16-F1 cells) [1]: 1.2 nM
